From paper PMC9482650, “Quantitative fragmentomics allow affinity mapping of interactomes” (Nature Communications, 2022)

T1: PDZRN3_1, Q9UPQ7
T1 sequence (Q9UPQ7 244-349, limits assumed, looked up): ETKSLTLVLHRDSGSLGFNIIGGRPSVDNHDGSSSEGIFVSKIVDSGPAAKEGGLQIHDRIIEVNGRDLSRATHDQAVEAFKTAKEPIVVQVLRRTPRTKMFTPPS

T2: GRIP1_3, Q9Y3R0
T2 sequence (Q9Y3R0 247-346, limits assumed, looked up): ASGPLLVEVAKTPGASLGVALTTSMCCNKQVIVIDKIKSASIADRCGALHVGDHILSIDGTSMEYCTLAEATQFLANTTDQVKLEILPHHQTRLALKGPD

T3: APBA2_2, Q99767
T3 sequence (Q99767 654-744, limits assumed, looked up): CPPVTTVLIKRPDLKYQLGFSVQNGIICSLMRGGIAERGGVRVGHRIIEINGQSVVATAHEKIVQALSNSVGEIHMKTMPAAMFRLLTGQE

T4: TX1BP3, O14907
T4 sequence (O14907 10-122, limits assumed, looked up): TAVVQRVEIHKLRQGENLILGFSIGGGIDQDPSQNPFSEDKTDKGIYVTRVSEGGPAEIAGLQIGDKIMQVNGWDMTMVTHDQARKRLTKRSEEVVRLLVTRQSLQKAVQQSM

T5: RADIL, Q96JH8
T5 sequence (Q96JH8 971-1071, limits assumed, looked up): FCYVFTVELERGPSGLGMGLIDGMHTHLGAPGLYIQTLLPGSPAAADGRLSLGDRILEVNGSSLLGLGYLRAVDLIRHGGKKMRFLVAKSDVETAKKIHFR

T6: GRIP1_5, Q9Y3R0
T6 sequence (Q9Y3R0 568-668, limits assumed, looked up): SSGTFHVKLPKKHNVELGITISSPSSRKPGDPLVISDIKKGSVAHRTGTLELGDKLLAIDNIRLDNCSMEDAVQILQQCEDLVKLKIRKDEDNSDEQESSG

T7: SNTB1, Q13884
T7 sequence (Q13884 107-205, limits assumed, looked up): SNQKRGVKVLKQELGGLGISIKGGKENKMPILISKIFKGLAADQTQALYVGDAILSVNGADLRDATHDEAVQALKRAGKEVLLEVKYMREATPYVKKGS


What follows are binders tested against FRMPD4, Q14CM0 (assay: holdup assay). Details: plain residues with an end cap or a label only (N-terminal biotin on a linker: ado-ado).
Set-up: key: below the threshold = too weak to quantify, mostly under pKd 3.1 to 4

Sequence of FRMPD4, Q14CM0 (Q14CM0 67-160): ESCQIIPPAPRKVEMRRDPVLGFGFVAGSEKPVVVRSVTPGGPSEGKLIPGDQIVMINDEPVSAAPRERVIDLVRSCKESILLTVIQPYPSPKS

| Binder | pKd |
| --- | --- |
| PPYRHRNTVV [ERBB4, Q15303] | below the threshold |

These binders were tested against FRMPD3, Q5JV73 (assay: holdup assay). Details: plain residues with an end cap or a label only (N-terminal biotin on a linker: ado-ado).
Set-up: key: below the threshold = too weak to quantify, mostly under pKd 3.1 to 4

Sequence of FRMPD3, Q5JV73 (Q5JV73 12-100): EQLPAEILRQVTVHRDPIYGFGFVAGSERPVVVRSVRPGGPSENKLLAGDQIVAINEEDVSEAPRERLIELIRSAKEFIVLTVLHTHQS

| Binder | pKd |
| --- | --- |
| PPYRHRNTVV [ERBB4, Q15303] | below the threshold |

Each binder was assayed against T1, PDZRN3_1, Q9UPQ7 (assay: holdup assay). Details: plain residues with an end cap or a label only (N-terminal biotin on a linker: ado-ado).
Set-up: key: below the threshold = too weak to quantify, mostly under pKd 3.1 to 4

| Binder | pKd |
| --- | --- |
| PPYRHRNTVV [ERBB4, Q15303] | 3.54 |

The binders below were run against DLG4_3, P78352 (assay: holdup assay). Details: plain residues with an end cap or a label only (N-terminal biotin on a linker: ado-ado).
Set-up: key: below the threshold = too weak to quantify, mostly under pKd 3.1 to 4

Sequence of DLG4_3, P78352 (P78352 306-403): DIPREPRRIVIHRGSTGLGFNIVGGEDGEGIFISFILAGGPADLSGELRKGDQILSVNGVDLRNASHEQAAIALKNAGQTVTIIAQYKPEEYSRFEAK

| Binder | pKd |
| --- | --- |
| PPYRHRNTVV [ERBB4, Q15303] | 4.23 |

The binders below were run against PICK1, Q9NRD5 (assay: holdup assay). Details: plain residues with an end cap or a label only (N-terminal biotin on a linker: ado-ado).
Set-up: key: below the threshold = too weak to quantify, mostly under pKd 3.1 to 4

Sequence of PICK1, Q9NRD5 (Q9NRD5 17-115): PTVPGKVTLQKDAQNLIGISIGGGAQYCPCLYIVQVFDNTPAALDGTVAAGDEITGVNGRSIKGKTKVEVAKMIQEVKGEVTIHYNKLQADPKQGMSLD

| Binder | pKd |
| --- | --- |
| PPYRHRNTVV [ERBB4, Q15303] | below the threshold |

These binders were tested against LNX1_3, Q8TBB1 (assay: holdup assay). Details: plain residues with an end cap or a label only (N-terminal biotin on a linker: ado-ado).
Set-up: key: below the threshold = too weak to quantify, mostly under pKd 3.1 to 4

Sequence of LNX1_3, Q8TBB1 (Q8TBB1 500-596): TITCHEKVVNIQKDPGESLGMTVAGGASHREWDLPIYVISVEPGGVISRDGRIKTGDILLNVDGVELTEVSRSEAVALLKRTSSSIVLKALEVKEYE

| Binder | pKd |
| --- | --- |
| PPYRHRNTVV [ERBB4, Q15303] | below the threshold |

The binders below were run against MAGI2_5, Q86UL8 (assay: holdup assay). Details: plain residues with an end cap or a label only (N-terminal biotin on a linker: ado-ado).
Set-up: key: below the threshold = too weak to quantify, mostly under pKd 3.1 to 4

Sequence of MAGI2_5, Q86UL8 (Q86UL8 915-1017): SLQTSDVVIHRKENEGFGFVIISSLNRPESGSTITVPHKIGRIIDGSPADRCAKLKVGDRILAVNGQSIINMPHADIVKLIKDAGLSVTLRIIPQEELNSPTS

| Binder | pKd |
| --- | --- |
| PPYRHRNTVV [ERBB4, Q15303] | below the threshold |

These binders were tested against GORASP1, Q9BQQ3 (assay: holdup assay). Details: plain residues with an end cap or a label only (N-terminal biotin on a linker: ado-ado).
Set-up: key: below the threshold = too weak to quantify, mostly under pKd 3.1 to 4

Sequence of GORASP1, Q9BQQ3 (Q9BQQ3 1-208): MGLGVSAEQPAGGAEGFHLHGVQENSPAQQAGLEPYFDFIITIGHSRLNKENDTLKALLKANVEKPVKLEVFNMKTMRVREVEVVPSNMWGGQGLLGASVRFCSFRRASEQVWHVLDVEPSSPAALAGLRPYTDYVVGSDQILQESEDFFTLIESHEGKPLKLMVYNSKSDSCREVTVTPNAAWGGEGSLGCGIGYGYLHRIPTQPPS

| Binder | pKd |
| --- | --- |
| PPYRHRNTVV [ERBB4, Q15303] | 4.19 |

Each binder was assayed against T2, GRIP1_3, Q9Y3R0 (assay: holdup assay). Details: plain residues with an end cap or a label only (N-terminal biotin on a linker: ado-ado).
Set-up: key: below the threshold = too weak to quantify, mostly under pKd 3.1 to 4

| Binder | pKd |
| --- | --- |
| PPYRHRNTVV [ERBB4, Q15303] | below the threshold |

Each binder was assayed against GRIP2_4, Q9C0E4 (assay: holdup assay). Details: plain residues with an end cap or a label only (N-terminal biotin on a linker: ado-ado).
Set-up: key: below the threshold = too weak to quantify, mostly under pKd 3.1 to 4

Sequence of GRIP2_4, Q9C0E4 (Q9C0E4 446-548): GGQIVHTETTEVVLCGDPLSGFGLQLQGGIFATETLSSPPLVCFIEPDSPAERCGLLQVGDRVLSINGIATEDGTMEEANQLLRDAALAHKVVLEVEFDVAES

| Binder | pKd |
| --- | --- |
| PPYRHRNTVV [ERBB4, Q15303] | below the threshold |

What follows are binders tested against MAGI2_6, Q86UL8 (assay: holdup assay). Details: plain residues with an end cap or a label only (N-terminal biotin on a linker: ado-ado).
Set-up: key: below the threshold = too weak to quantify, mostly under pKd 3.1 to 4

Sequence of MAGI2_6, Q86UL8 (Q86UL8 1141-1229): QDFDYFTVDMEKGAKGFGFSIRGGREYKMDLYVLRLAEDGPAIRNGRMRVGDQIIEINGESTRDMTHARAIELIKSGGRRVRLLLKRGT

| Binder | pKd |
| --- | --- |
| PPYRHRNTVV [ERBB4, Q15303] | below the threshold |

Each binder was assayed against LNX1_1, Q8TBB1 (assay: holdup assay). Details: plain residues with an end cap or a label only (N-terminal biotin on a linker: ado-ado).
Set-up: key: below the threshold = too weak to quantify, mostly under pKd 3.1 to 4

Sequence of LNX1_1, Q8TBB1 (Q8TBB1 261-371): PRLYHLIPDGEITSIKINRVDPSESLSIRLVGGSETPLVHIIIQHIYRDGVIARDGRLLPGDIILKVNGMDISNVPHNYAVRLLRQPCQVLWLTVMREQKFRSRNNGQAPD

| Binder | pKd |
| --- | --- |
| PPYRHRNTVV [ERBB4, Q15303] | 4.23 |

These binders were tested against SCRIB_2, Q14160 (assay: holdup assay). Details: plain residues with an end cap or a label only (N-terminal biotin on a linker: ado-ado).
Set-up: key: below the threshold = too weak to quantify, mostly under pKd 3.1 to 4

Sequence of SCRIB_2, Q14160 (Q14160 857-960): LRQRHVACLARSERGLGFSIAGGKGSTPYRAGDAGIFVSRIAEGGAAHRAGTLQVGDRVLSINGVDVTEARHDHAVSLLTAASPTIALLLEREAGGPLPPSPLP

| Binder | pKd |
| --- | --- |
| PPYRHRNTVV [ERBB4, Q15303] | below the threshold |

What follows are binders tested against T3, APBA2_2, Q99767 (assay: holdup assay). Details: plain residues with an end cap or a label only (N-terminal biotin on a linker: ado-ado).
Set-up: key: below the threshold = too weak to quantify, mostly under pKd 3.1 to 4

| Binder | pKd |
| --- | --- |
| PPYRHRNTVV [ERBB4, Q15303] | below the threshold |

The binders below were run against Inadl_1, Q8NI35 (assay: holdup assay). Details: plain residues with an end cap or a label only (N-terminal biotin on a linker: ado-ado).
Set-up: key: below the threshold = too weak to quantify, mostly under pKd 3.1 to 4

Sequence of Inadl_1, Q8NI35 (Q8NI35 113-229): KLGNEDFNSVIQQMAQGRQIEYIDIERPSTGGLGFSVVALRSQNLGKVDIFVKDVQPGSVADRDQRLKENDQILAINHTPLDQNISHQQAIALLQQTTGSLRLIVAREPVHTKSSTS

| Binder | pKd |
| --- | --- |
| PPYRHRNTVV [ERBB4, Q15303] | below the threshold |

The binders below were run against T4, TX1BP3, O14907 (assay: holdup assay). Details: plain residues with an end cap or a label only (N-terminal biotin on a linker: ado-ado).
Set-up: key: below the threshold = too weak to quantify, mostly under pKd 3.1 to 4

| Binder | pKd |
| --- | --- |
| PPYRHRNTVV [ERBB4, Q15303] | 4.13 |

The binders below were run against SCRIB_3, Q14160 (assay: holdup assay). Details: plain residues with an end cap or a label only (N-terminal biotin on a linker: ado-ado).
Set-up: key: below the threshold = too weak to quantify, mostly under pKd 3.1 to 4

Sequence of SCRIB_3, Q14160 (Q14160 999-1103): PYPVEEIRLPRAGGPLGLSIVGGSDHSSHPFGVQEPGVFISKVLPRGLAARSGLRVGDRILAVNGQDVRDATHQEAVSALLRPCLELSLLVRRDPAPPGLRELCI

| Binder | pKd |
| --- | --- |
| PPYRHRNTVV [ERBB4, Q15303] | 3.58 |

These binders were tested against T5, RADIL, Q96JH8 (assay: holdup assay). Details: plain residues with an end cap or a label only (N-terminal biotin on a linker: ado-ado).
Set-up: key: below the threshold = too weak to quantify, mostly under pKd 3.1 to 4

| Binder | pKd |
| --- | --- |
| PPYRHRNTVV [ERBB4, Q15303] | 4.21 |

The binders below were run against T6, GRIP1_5, Q9Y3R0 (assay: holdup assay). Details: plain residues with an end cap or a label only (N-terminal biotin on a linker: ado-ado).
Set-up: key: below the threshold = too weak to quantify, mostly under pKd 3.1 to 4

| Binder | pKd |
| --- | --- |
| PPYRHRNTVV [ERBB4, Q15303] | below the threshold |

Each binder was assayed against DLG4_2, P78352 (assay: holdup assay). Details: plain residues with an end cap or a label only (N-terminal biotin on a linker: ado-ado).
Set-up: key: below the threshold = too weak to quantify, mostly under pKd 3.1 to 4

Sequence of DLG4_2, P78352 (P78352 155-259): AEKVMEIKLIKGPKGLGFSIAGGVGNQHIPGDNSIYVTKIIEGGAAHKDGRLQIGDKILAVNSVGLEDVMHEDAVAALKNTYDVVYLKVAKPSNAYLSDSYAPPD

| Binder | pKd |
| --- | --- |
| PPYRHRNTVV [ERBB4, Q15303] | 4.97 |

Each binder was assayed against SNX27, Q96L92 (assay: holdup assay). Details: plain residues with an end cap or a label only (N-terminal biotin on a linker: ado-ado).
Set-up: key: below the threshold = too weak to quantify, mostly under pKd 3.1 to 4

| Binder | pKd |
| --- | --- |
| PPYRHRNTVV [ERBB4, Q15303] | 4.42 |

These binders were tested against MAGI1_2, Q96QZ7 (assay: holdup assay). Details: plain residues with an end cap or a label only (N-terminal biotin on a linker: ado-ado).
Set-up: key: below the threshold = too weak to quantify, mostly under pKd 3.1 to 4

Sequence of MAGI1_2, Q96QZ7 (Q96QZ7 456-580): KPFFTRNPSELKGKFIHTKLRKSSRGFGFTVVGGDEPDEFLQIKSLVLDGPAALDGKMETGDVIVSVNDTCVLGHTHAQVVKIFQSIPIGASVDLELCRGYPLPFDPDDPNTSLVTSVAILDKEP

| Binder | pKd |
| --- | --- |
| PPYRHRNTVV [ERBB4, Q15303] | 4.21 |

Each binder was assayed against PDZRN4_1, Q6ZMN7 (assay: holdup assay). Details: plain residues with an end cap or a label only (N-terminal biotin on a linker: ado-ado).
Set-up: key: below the threshold = too weak to quantify, mostly under pKd 3.1 to 4

Sequence of PDZRN4_1, Q6ZMN7 (Q6ZMN7 213-318): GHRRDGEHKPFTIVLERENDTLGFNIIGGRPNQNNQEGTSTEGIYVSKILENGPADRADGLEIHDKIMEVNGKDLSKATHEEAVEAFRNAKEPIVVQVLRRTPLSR

| Binder | pKd |
| --- | --- |
| PPYRHRNTVV [ERBB4, Q15303] | below the threshold |

Each binder was assayed against Inadl_6, Q8NI35 (assay: holdup assay). Details: plain residues with an end cap or a label only (N-terminal biotin on a linker: ado-ado).
Set-up: key: below the threshold = too weak to quantify, mostly under pKd 3.1 to 4

Sequence of Inadl_6, Q8NI35 (Q8NI35 1058-1167): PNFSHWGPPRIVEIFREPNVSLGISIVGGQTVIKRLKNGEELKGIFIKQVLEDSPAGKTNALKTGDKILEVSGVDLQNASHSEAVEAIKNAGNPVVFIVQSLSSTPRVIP

| Binder | pKd |
| --- | --- |
| PPYRHRNTVV [ERBB4, Q15303] | below the threshold |

Each binder was assayed against MAGI1_1, Q96QZ7 (assay: holdup assay). Details: plain residues with an end cap or a label only (N-terminal biotin on a linker: ado-ado).
Set-up: key: below the threshold = too weak to quantify, mostly under pKd 3.1 to 4

Sequence of MAGI1_1, Q96QZ7 (Q96QZ7 1-106): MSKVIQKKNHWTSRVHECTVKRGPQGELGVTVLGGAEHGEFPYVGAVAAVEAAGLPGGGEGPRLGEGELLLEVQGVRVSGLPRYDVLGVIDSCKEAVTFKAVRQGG

| Binder | pKd |
| --- | --- |
| PPYRHRNTVV [ERBB4, Q15303] | below the threshold |

Each binder was assayed against LNX1_2, Q8TBB1 (assay: holdup assay). Details: plain residues with an end cap or a label only (N-terminal biotin on a linker: ado-ado).
Set-up: key: below the threshold = too weak to quantify, mostly under pKd 3.1 to 4

Sequence of LNX1_2, Q8TBB1 (Q8TBB1 371-470): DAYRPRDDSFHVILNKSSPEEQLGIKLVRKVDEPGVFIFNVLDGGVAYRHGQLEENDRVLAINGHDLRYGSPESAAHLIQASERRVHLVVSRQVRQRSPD

| Binder | pKd |
| --- | --- |
| PPYRHRNTVV [ERBB4, Q15303] | 3.54 |

What follows are binders tested against IL16_4, Q14005 (assay: holdup assay). Details: plain residues with an end cap or a label only (N-terminal biotin on a linker: ado-ado).
Set-up: key: below the threshold = too weak to quantify, mostly under pKd 3.1 to 4

Sequence of IL16_4, Q14005 (Q14005 1229-1329): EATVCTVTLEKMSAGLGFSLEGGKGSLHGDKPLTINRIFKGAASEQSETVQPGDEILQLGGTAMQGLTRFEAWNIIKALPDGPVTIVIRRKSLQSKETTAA

| Binder | pKd |
| --- | --- |
| PPYRHRNTVV [ERBB4, Q15303] | below the threshold |

Each binder was assayed against GRIP2_7, Q9C0E4 (assay: holdup assay). Details: plain residues with an end cap or a label only (N-terminal biotin on a linker: ado-ado).
Set-up: key: below the threshold = too weak to quantify, mostly under pKd 3.1 to 4

Sequence of GRIP2_7, Q9C0E4 (Q9C0E4 934-1023): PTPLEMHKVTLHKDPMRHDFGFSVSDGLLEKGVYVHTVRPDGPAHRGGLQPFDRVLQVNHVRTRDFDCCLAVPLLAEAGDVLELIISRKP

| Binder | pKd |
| --- | --- |
| PPYRHRNTVV [ERBB4, Q15303] | below the threshold |

The binders below were run against T7, SNTB1, Q13884 (assay: holdup assay). Details: plain residues with an end cap or a label only (N-terminal biotin on a linker: ado-ado).
Set-up: key: below the threshold = too weak to quantify, mostly under pKd 3.1 to 4

| Binder | pKd |
| --- | --- |
| PPYRHRNTVV [ERBB4, Q15303] | 5 |

What follows are binders tested against CASK, O14936 (assay: holdup assay). Details: plain residues with an end cap or a label only (N-terminal biotin on a linker: ado-ado).
Set-up: key: below the threshold = too weak to quantify, mostly under pKd 3.1 to 4

Sequence of CASK, O14936 (O14936 487-570): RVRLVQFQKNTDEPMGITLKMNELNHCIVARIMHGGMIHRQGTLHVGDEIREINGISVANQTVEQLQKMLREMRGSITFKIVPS

| Binder | pKd |
| --- | --- |
| PPYRHRNTVV [ERBB4, Q15303] | below the threshold |
